These results are taken from paper PMC3195435.

Holding throughout (details): 4% glycerol, 1 mM MgCl2, 1 mM DTT, 50 mM NaCl, 10 mM Tris-HCl pH 7.5, room temperature 30 min; EMSA on 4% native PAGE in 45 mM Tris-borate, 2 mM EDTA pH 8.3 at …
The test system of series [1] is anti-FLAG M2 antibody (mouse). Description: competition.
Series [2] concerns anti-FLAG M2 antibody (mouse). As to the kind of experiment: EMSA.
Series [3] deals with anti-FLAG M2 antibody (mouse). Description: bead pull-down, competition.

Take TCGATTTCCTTAGTTGTCTTCCTTAGTGAG [ABA]: the binding signal (% inhibition of Flag-TRF2dB capture) in series [1] is 45. Moreover, the equilibrium dissociation constant (Kd) in series [2] came to 80 nM. The sequence also came in with an IC50 in series [3] of 96 nM.
Consider “TCGATTTCCTTAGTTGTCTTCCTTAGTTGTCTTCCTTAGTTGTCTTCCTTAGTGAG [3XABA]”, for which, in series [1], the binding signal (% inhibition of Flag-TRF2dB capture) stood at 62 and the binding signal (% release of bound Flag-TRF2dB) worked out at 36.
